Experimental findings from patent publication US20150203575A1 (Genentech, published 2015) are described below.

The target in one assay is T1, APLP1 expressed on cells (human, UniProt P51693 39-650).
T1 construct: Clone of the Origene human cDNA library; also called Amyloid beta precursor like protein 1
T1 sequence: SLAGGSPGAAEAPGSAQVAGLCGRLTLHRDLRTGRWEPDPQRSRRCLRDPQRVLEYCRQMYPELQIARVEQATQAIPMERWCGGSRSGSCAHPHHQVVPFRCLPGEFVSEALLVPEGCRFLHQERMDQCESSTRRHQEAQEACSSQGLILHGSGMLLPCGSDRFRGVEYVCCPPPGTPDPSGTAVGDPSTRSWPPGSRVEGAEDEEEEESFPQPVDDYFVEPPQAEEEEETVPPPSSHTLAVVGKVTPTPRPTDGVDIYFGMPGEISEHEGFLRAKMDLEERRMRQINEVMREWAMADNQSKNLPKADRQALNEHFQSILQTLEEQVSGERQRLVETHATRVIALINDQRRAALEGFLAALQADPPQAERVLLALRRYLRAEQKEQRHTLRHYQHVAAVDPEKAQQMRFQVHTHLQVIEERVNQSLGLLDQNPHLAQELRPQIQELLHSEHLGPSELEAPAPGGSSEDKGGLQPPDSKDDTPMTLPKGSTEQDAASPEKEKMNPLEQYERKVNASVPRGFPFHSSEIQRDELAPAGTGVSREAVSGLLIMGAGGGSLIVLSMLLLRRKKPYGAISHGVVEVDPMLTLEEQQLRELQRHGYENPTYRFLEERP
As to the kind of experiment: cDNA expression library screen with PILRα-AP supernatant on COS7 transfectants; positive clones further analysed by FACS. Background: In flow cytometry, cells or beads pass a laser one at a time.

The target of assay [1] is T2, BR3 expressed on cells (human, UniProt Q96RJ3 1-184).
T2 construct: Clone of the Origene human cDNA library
T2 sequence: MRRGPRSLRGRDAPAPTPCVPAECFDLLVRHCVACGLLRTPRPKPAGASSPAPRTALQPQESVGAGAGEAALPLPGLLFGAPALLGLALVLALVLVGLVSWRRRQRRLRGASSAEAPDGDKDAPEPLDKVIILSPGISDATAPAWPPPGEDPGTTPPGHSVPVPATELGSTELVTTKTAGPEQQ
The assay is described as above.
Experimental: (§1) COS7 cells were plated in a 24-well format and transfected with 10 ul of Origene library DNA (Origene, human DNA library containing 20 k genes) per well with Fugene 6 Reagent. Two days later, cells were incubated with human or mouse PILRα-Ap supernatants for 45 min at room temperature (RT). Then cells were fixed with 4% PFA for 15 min at RT. After removing fixation buffer, cells were blocked with 100 mM Glycine in HBS (20 mM Hepes, PH7.2, 150 mM NaCl) for 15 min at RT. Cells were then rinsed and incubated in HBS for 90 min at 65° C. HBS was removed and Western Blue Substrate (Promega) was added and color was developed for 30 min to 1 hr.

Assay [2] deals with T3, IL15-RA expressed on cells (human, UniProt Q13261 31-267).
T3 construct: Clone of the Origene human cDNA library; also called Interleukin 15 receptor alpha
T3 sequence (Q13261 31-267 limits assumed): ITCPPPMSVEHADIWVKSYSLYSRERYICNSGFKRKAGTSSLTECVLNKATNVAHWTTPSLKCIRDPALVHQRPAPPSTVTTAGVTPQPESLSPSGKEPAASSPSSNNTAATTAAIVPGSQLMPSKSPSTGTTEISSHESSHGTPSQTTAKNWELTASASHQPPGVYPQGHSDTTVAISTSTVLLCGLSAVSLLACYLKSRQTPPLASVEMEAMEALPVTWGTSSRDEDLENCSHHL
Described as above.
Experimental: as §1

Assay [3] addresses T4, MAG expressed on cells (human, UniProt P20916 20-626).
T4 construct: Clone of the Origene human cDNA library; also called Myelin associated glycoprotein; SIGLEC4A
T4 sequence: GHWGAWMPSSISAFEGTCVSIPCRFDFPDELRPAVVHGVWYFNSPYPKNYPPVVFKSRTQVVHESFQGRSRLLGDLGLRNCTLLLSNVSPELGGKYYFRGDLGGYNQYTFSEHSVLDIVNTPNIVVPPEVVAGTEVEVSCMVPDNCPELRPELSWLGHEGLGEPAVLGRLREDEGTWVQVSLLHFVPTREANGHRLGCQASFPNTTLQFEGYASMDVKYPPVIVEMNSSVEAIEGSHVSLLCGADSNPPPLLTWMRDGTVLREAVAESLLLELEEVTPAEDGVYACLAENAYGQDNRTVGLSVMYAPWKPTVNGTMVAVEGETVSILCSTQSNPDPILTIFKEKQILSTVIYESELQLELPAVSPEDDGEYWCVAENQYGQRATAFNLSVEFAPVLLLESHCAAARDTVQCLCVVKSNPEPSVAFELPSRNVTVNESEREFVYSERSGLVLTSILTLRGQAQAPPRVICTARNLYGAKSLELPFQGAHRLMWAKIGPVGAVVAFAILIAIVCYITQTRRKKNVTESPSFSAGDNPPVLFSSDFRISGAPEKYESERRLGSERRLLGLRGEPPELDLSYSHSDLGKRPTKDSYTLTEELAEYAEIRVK
The description is as above.
Experimental: as §1

Assay [4] addresses T5, human NPDC1 expressed on cells (human, UniProt Q9NQX5 35-325).
T5 construct: also called hNPDC1; hNPCD1
T5 sequence: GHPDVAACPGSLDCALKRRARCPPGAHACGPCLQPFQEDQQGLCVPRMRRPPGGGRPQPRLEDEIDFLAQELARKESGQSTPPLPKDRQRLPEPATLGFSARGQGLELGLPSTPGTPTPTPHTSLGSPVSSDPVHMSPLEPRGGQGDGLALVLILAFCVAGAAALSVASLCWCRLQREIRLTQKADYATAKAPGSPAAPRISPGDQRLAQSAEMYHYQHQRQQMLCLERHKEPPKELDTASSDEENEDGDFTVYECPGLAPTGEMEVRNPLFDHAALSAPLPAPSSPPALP
The assay is described as follows: AP staining of transfected COS7 cells with AP fusion supernatant.
Experimental: (§2) 2931 cells were transfected with PILRα-AP-pRK5 constructs and Fugene 6 Transfection Reagent (Roche) according to the manufacturer's instructions. Three days after transfection, supernatants were collected for screening. COS7 cells were plated in a 24-well format and transfected with 10 ul of Origene library DNA (Origene, human DNA library containing 20 k genes) per well with Fugene 6 Reagent. Two days later, cells were incubated with human or mouse PILRα-Ap supernatants for 45 min at room temperature (RT). Then cells were fixed with 4% PFA for 15 min at RT. After removing fixation buffer, cells were blocked with 100 mM Glycine in HBS (20 mM Hepes, PH7.2, 150 mM NaCl) for 15 min at RT. Cells were then rinsed and incubated in HBS for 90 min at 65° C. HBS was removed and Western Blue Substrate (Promega) was added and color was developed for 30 min to 1 hr.

Assay [5] concerns the target T6, human COLEC12 expressed on cells (human, UniProt Q5KU26 1-742).
T6 construct: also called hCOLEC12; C-terminal his tagged hCOLEC12
Described as above.
Experimental: as §2

For assay [6], the target named is T4, MAG expressed on cells. The assay is described as follows: flow cytometry, transfected 293T cells, 2 µg/ml.
Assay [7] deals with T2, BR3 expressed on cells. As to the kind of experiment: flow cytometry, transfected 293T cells, 2 µg/ml.
A further assay deals with T7, PSS8 expressed on cells (human, UniProt Q16651 30-343).
T7 construct: Clone of the Origene human cDNA library; also called Protease serine 8; prostasin
T7 sequence (Q16651 30-343 limits assumed): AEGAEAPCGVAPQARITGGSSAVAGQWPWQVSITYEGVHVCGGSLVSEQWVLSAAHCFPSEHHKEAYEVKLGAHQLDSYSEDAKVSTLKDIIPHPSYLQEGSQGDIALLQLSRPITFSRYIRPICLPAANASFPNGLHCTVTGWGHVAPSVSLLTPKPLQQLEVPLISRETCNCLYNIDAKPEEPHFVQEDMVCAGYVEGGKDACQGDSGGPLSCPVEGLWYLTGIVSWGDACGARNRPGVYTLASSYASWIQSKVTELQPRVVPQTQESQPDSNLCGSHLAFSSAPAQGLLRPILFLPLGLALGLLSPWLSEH
As to the kind of experiment: flow cytometry, transfected 293T cells, 2 µg/ml.

The target in assay [8] is T8, IL-2Ra expressed on cells (human, UniProt P01589 22-272).
T8 construct: Clone of the Origene human cDNA library; also called Interleukin 2 receptor alpha
T8 sequence: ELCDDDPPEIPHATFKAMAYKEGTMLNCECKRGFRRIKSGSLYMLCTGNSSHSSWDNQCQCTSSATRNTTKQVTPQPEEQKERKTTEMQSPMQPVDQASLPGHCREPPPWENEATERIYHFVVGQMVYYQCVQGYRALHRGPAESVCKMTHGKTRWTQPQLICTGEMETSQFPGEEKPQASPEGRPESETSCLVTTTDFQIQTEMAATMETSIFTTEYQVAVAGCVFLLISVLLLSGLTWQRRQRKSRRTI
As to the kind of experiment: flow cytometry, transfected 293T cells, 2 µg/ml.

T6 sequence (Q5KU26 whole entry S522P/G606S): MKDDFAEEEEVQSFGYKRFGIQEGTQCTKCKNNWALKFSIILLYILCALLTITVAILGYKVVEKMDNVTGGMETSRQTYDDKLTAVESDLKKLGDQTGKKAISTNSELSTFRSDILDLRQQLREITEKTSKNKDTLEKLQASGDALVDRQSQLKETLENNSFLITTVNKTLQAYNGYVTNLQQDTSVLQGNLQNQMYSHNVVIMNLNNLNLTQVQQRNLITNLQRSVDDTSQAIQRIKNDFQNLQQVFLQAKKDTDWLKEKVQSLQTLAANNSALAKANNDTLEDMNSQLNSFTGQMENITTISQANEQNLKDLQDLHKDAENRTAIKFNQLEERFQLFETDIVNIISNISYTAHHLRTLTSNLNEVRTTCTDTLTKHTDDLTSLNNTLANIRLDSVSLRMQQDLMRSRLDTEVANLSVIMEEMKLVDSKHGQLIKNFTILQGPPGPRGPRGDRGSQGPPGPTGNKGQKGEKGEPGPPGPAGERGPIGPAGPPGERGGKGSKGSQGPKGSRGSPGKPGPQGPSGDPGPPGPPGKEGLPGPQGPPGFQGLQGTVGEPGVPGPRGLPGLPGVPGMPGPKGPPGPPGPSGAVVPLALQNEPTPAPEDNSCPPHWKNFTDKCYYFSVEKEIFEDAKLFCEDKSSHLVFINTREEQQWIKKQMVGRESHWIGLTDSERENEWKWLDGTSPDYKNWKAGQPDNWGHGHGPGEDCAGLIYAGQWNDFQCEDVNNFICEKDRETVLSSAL
Experimental for APLP1 expressed on cells: as §1

B1: hPILRα-AP (other)
chain: QPSGSTGSGPSYLYGVTQPKHLSASMGGSVEIPFSFYYPWELATAPDVRISWRRGHFHRQSFYSTRPPSIHKDYVNRLFLNWTEGQKSGFLRISNLQKQDQSVYFCRVELDTRSSGRQQWQSIEGTKLSITQAVTTTTQRPSSMTTTWRLSSTTTTTGLRVTQGKRRSDSWHISLET
notes: Used as culture supernatant; also called human PILRα-AP; Alkaline phosphatase (AP)-tagged PILRα construct; not shown: C-terminal alkaline phosphatase (AP) tag
Consider B1, for which the binding result (in the assay with APLP1 expressed on cells; in the assay with BR3 expressed on cells [1]; in [2]; with MAG expressed on cells [3]; in assay [4]; in assay [5]) was “binds” in each case.

B2: mPILRα-Fc (Fc fusion)
chain: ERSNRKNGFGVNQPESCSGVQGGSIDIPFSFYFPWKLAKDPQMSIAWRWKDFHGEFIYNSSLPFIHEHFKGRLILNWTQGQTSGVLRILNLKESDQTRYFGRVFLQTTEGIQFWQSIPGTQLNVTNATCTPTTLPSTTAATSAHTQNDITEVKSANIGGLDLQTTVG
notes: also called mouse PILRα-Fc; WT mPILRα-Fc; not shown: Fc of mouse IgG2a (PILRα-mIgG2a, called PILRα-Fc)
As to B2, the “% cells in lower right quadrant” value with MAG expressed on cells [6] worked out at 0.039%; in the assay with BR3 expressed on cells [7] it was 34.1%; with PSS8 expressed on cells it was 0.024%; in assay [8], 14.1%.
